# Reference: patent publication US20110055942A1
# B1: TDF-1 (BMP-7 or OP-1), P18075 293-431 (ligand, UniProt P18075 293-431, looked up)
# chain: STGSKQRSQNRSKTPKNQEALRMANVAENSSSDQRQACKKHELYVSFRDLGWQDWIIAPEGYAAYYCEGECAFPLNSYMNATNHAIVQTLVHFINPETVPKPCCAPTQLNAISVLYFDDSSNVILKKYRNMVVRACGCH
# Biological target: T1, BMPR-1A receptor extra cellular domain (ECD), P36894
# T1 chain: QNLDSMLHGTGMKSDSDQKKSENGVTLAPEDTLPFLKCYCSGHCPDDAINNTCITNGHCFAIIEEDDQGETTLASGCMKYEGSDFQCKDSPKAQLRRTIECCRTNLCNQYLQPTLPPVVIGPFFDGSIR
# Assay: radio-ligand competition: cold TDF-1 displacing 125I-labeled TDF-1 from immobilized BMPR-1A ECD
# Conditions: remark: other sources report otherwise
binder,measurement,value
B1,ED50,6.5 nM
